tested on: Escherichia coli TOP10; test: shrunken log2 fold change of peptide-encoding DNA abundance (4.5 h post-induction vs induction); higher = less antimicrobial activity (less host growth inhibition); details: time post-induction: 4.5 h; library: site-saturation at positions 5, 18, 19, 20
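Also: peptides expressed intracellularly from a pBAD plasmid library in pooled LB shake-flask culture, induced with 0.3% L-arabinose, DNA abundance read by NGS, three biological replicates, DESeq2 with apeglm shrinkage.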

Row | Sequence | shrunken log2 fold change
1 | RRIRARPPRLPRPRPRPYPQPRP | -0.166
2 | RRIRYRPPRLPRPRPRPWPEPRP | -0.0592
3 | RRIRGRPPRLPRPRPRPFRGPRP | -0.0655
4 | RRIRHRPPRLPRPRPRPYMHPRP | -0.448
5 | RRIRVRPPRLPRPRPRPPYMPRP | -0.592
6 | RRIRYRPPRLPRPRPRPSASPRP | -0.071
7 | RRIRMRPPRLPRPRPRPRFIPRP | -0.154
8 | RRIRQRPPRLPRPRPRPLHGPRP | 0.0407
9 | RRIRNRPPRLPRPRPRPHCKPRP | -0.249
10 | RRIRPRPPRLPRPRPRPLEDPRP | 0.492
11 | RRIRQRPPRLPRPRPRPWFAPRP | -0.16
12 | RRIRMRPPRLPRPRPRPYSNPRP | -0.834
13 | RRIRGRPPRLPRPRPRPVSGPRP | 0.731
14 | RRIRGRPPRLPRPRPRPIKIPRP | 0.302
15 | RRIRKRPPRLPRPRPRPWKHPRP | -0.339
16 | RRIRFRPPRLPRPRPRPRFWPRP | 0.317
17 | RRIRDRPPRLPRPRPRPQCLPRP | 0.0413
18 | RRIRPRPPRLPRPRPRPVIFPRP | -0.11
19 | RRIRYRPPRLPRPRPRPDFSPRP | 0.0939
20 | RRIRYRPPRLPRPRPRPQFNPRP | -0.755
21 | RRIRHRPPRLPRPRPRPESMPRP | 0.0353
22 | RRIRPRPPRLPRPRPRPFHFPRP | -0.339

Row | Sequence | shrunken log2 fold change
23 | RRIRWRPPRLPRPRPRPTNQPRP | 0.018
24 | RRIRCRPPRLPRPRPRPDQIPRP | -0.212
25 | RRIRIRPPRLPRPRPRPCFYPRP | -0.694
26 | RRIRLRPPRLPRPRPRPPYWPRP | 0.106
27 | RRIRKRPPRLPRPRPRPQDNPRP | -0.0637
28 | RRIRSRPPRLPRPRPRPKEMPRP | 0.187
29 | RRIRVRPPRLPRPRPRPGNCPRP | 0.0986
30 | RRIRFRPPRLPRPRPRPMQSPRP | -0.208
31 | RRIRTRPPRLPRPRPRPKYHPRP | -0.243
32 | RRIRFRPPRLPRPRPRPPSPPRP | 0.688
33 | RRIRTRPPRLPRPRPRPIFMPRP | 0.0645
34 | RRIRDRPPRLPRPRPRPASAPRP | 0.616
35 | RRIRWRPPRLPRPRPRPISYPRP | -0.0222
36 | RRIRCRPPRLPRPRPRPWWSPRP | 0.119
37 | RRIRRRPPRLPRPRPRPQMCPRP | 0.0865
38 | RRIRCRPPRLPRPRPRPRHLPRP | -0.302
39 | RRIRERPPRLPRPRPRPIPHPRP | -0.19
40 | RRIRARPPRLPRPRPRPRDSPRP | 0.499
41 | RRIRPRPPRLPRPRPRPGHCPRP | 0.0859
42 | RRIRTRPPRLPRPRPRPNKDPRP | -0.54
43 | RRIRRRPPRLPRPRPRPKKDPRP | 0.176
44 | RRIRERPPRLPRPRPRPQEPPRP | -0.0182

Row | Sequence | shrunken log2 fold change
45 | RRIRNRPPRLPRPRPRPTILPRP | -0.742
46 | RRIRTRPPRLPRPRPRPDTRPRP | -0.186
47 | RRIRTRPPRLPRPRPRPVSDPRP | -0.114
48 | RRIRTRPPRLPRPRPRPCRDPRP | -0.118
49 | RRIRVRPPRLPRPRPRPVKPPRP | 0.247
50 | RRIRRRPPRLPRPRPRPHVNPRP | -0.0608
51 | RRIRIRPPRLPRPRPRPEFVPRP | -0.0754
52 | RRIRMRPPRLPRPRPRPYKAPRP | 0.00361
53 | RRIRARPPRLPRPRPRPRFCPRP | 0.527
54 | RRIRSRPPRLPRPRPRPERIPRP | -0.065
55 | RRIRWRPPRLPRPRPRPPHVPRP | 0.444
56 | RRIRARPPRLPRPRPRPVQVPRP | 0.123
57 | RRIRARPPRLPRPRPRPRSTPRP | 0.295
58 | RRIRFRPPRLPRPRPRPKDEPRP | -0.13
59 | RRIRYRPPRLPRPRPRPENYPRP | -0.0233
60 | RRIRMRPPRLPRPRPRPANWPRP | 2.4
61 | RRIRQRPPRLPRPRPRPINPPRP | -0.357
62 | RRIRGRPPRLPRPRPRPILCPRP | 0.174
63 | RRIRPRPPRLPRPRPRPNNCPRP | -0.0794
64 | RRIRIRPPRLPRPRPRPVVNPRP | -0.356
65 | RRIRYRPPRLPRPRPRPLVEPRP | -0.234
66 | RRIRIRPPRLPRPRPRPVTYPRP | -0.275

Row | Sequence | shrunken log2 fold change
67 | RRIRGRPPRLPRPRPRPGWSPRP | 0.758
68 | RRIRNRPPRLPRPRPRPGMAPRP | 0.0313
69 | RRIRYRPPRLPRPRPRPPRTPRP | -0.0112
70 | RRIRKRPPRLPRPRPRPMDIPRP | 0.0655
71 | RRIRARPPRLPRPRPRPASQPRP | 0.445
72 | RRIRFRPPRLPRPRPRPYEHPRP | -0.0962
73 | RRIRERPPRLPRPRPRPQIQPRP | 0.136
74 | RRIRLRPPRLPRPRPRPDGMPRP | -0.153
75 | RRIRIRPPRLPRPRPRPFDCPRP | -0.0028
76 | RRIRFRPPRLPRPRPRPTSLPRP | -1.17
77 | RRIRARPPRLPRPRPRPVWLPRP | 0.399
78 | RRIRIRPPRLPRPRPRPVHLPRP | -0.0973
79 | RRIRLRPPRLPRPRPRPSGQPRP | -0.0893
80 | RRIRGRPPRLPRPRPRPQEDPRP | 0.291
81 | RRIRNRPPRLPRPRPRPRLAPRP | 0.404
82 | RRIRFRPPRLPRPRPRPNMRPRP | 0.386
83 | RRIRMRPPRLPRPRPRPPKVPRP | 0.272
84 | RRIRERPPRLPRPRPRPRKTPRP | 0.318
85 | RRIRKRPPRLPRPRPRPSQTPRP | 0.026
86 | RRIRQRPPRLPRPRPRPTPKPRP | 1.53
87 | RRIRYRPPRLPRPRPRPSFHPRP | -1.01
88 | RRIRRRPPRLPRPRPRPEWYPRP | -0.128

Row | Sequence | shrunken log2 fold change
89 | RRIRYRPPRLPRPRPRPDDKPRP | -1.56
90 | RRIRVRPPRLPRPRPRPWFKPRP | 0.0333
91 | RRIRERPPRLPRPRPRPEIRPRP | -0.163
92 | RRIRHRPPRLPRPRPRPGCLPRP | -0.278
93 | RRIRHRPPRLPRPRPRPMPKPRP | 0.193
94 | RRIRGRPPRLPRPRPRPDKRPRP | 0.767
95 | RRIRARPPRLPRPRPRPSVMPRP | 0.00738
96 | RRIRRRPPRLPRPRPRPPMGPRP | 0.554
97 | RRIRWRPPRLPRPRPRPNVFPRP | -0.304
98 | RRIRQRPPRLPRPRPRPERYPRP | -0.0565
99 | RRIRWRPPRLPRPRPRPYETPRP | -0.181
100 | RRIRYRPPRLPRPRPRPPGAPRP | 0.397
101 | RRIRQRPPRLPRPRPRPEIRPRP | 0.0114
102 | RRIRSRPPRLPRPRPRPQQWPRP | -0.175
103 | RRIRVRPPRLPRPRPRPKGWPRP | 0.684
104 | RRIRERPPRLPRPRPRPCWVPRP | -0.26
105 | RRIRYRPPRLPRPRPRPAWTPRP | -0.156
106 | RRIRTRPPRLPRPRPRPHYSPRP | -0.0429
107 | RRIRDRPPRLPRPRPRPIIYPRP | -0.313
108 | RRIRPRPPRLPRPRPRPPVPPRP | 0.564
109 | RRIRNRPPRLPRPRPRPQQGPRP | -0.159

From the supplement of paper PMC9112550, “Optimization of the antimicrobial peptide Bac7 by deep mutational scanning” (BMC Biology, 2022)
